These are literature values, as cited in publication PMC5429092.

The target in this data set is PP1 (Homo sapiens) (UniProt P62136). Kind of data set: ITC. (Isothermal titration calorimetry measures the heat released or taken up as one component is titrated into another.)
UniProt P62136, sequence (P62136 2-330): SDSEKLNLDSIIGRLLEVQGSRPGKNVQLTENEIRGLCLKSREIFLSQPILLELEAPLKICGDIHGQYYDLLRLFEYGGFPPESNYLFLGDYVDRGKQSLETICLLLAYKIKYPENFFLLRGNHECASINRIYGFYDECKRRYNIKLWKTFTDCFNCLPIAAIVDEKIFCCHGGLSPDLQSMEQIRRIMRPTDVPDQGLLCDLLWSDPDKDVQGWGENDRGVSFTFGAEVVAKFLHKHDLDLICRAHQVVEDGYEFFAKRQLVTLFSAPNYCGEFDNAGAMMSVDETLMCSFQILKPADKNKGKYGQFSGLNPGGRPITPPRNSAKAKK

As for PPP1R15A (from UniProt O75807), the dissociation constant Kd is 62 nM.

The Kd is the free concentration of one partner at which half of the binding sites on the other are occupied at equilibrium, for simple one-to-one binding.
